# Laboratory results taken from the supplement of paper PMC10567573.
# B1: NET1 (parent)
# chain: PTPAKRRSSALWSEMLDITMKESL
# Variants of: B1
# Assay: protein stability index of a GFP-peptide fusion (GPS, HEK-293T) (PSI 1-6); higher = more stable
# Conditions: c terminus: a fixed tail appended
# 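Further: lentivirally expressed fusions sorted by FACS into six bins by GFP to DsRed ratio, PSI derived from sequencing read proportions per bin multiplied by bin number.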
row,Variant,protein stability index
1,ITPAKRRSSALWSEMLDITMKESL [P1I],2.07
2,CTPAKRRSSALWSEMLDITMKESL [P1C],1.75
3,RTPAKRRSSALWSEMLDITMKESL [P1R],1.92
4,STPAKRRSSALWSEMLDITMKESL [P1S],1.45
5,HTPAKRRSSALWSEMLDITMKESL [P1H],3.04
6,ATPAKRRSSALWSEMLDITMKESL [P1A],2.56
7,QTPAKRRSSALWSEMLDITMKESL [P1Q],2.78
8,TTPAKRRSSALWSEMLDITMKESL [P1T],1.67
9,MTPAKRRSSALWSEMLDITMKESL [P1M],1.72
10,KTPAKRRSSALWSEMLDITMKESL [P1K],2.04
11,WTPAKRRSSALWSEMLDITMKESL [P1W],1.89
12,PTPAKRRTSALWSEMLDITMKESL [S8T],2.9
13,PTPAKRRGSALWSEMLDITMKESL [S8G],2.53
14,PTPAKRRMSALWSEMLDITMKESL [S8M],1.59
15,PTPAKRRQSALWSEMLDITMKESL [S8Q],2.33
16,PTPAKRRISALWSEMLDITMKESL [S8I],2.03
17,PTPAKRRDSALWSEMLDITMKESL [S8D],2.65
18,PTPAKRRKSALWSEMLDITMKESL [S8K],2.96
19,PTPAKRRRSALWSEMLDITMKESL [S8R],1.65
20,PTPAKRRESALWSEMLDITMKESL [S8E],2.63
21,PTPAKRRWSALWSEMLDITMKESL [S8W],2.25
22,PTPAKRRFSALWSEMLDITMKESL [S8F],1.68
23,PTPAKRRYSALWSEMLDITMKESL [S8Y],2.28
24,PTPAKRRPSALWSEMLDITMKESL [S8P],2.01

row,Variant,protein stability index
1,PTPQKRRSSALWSEMLDITMKESL [A4Q],2.57
2,PTPKKRRSSALWSEMLDITMKESL [A4K],2.63
3,PTPIKRRSSALWSEMLDITMKESL [A4I],1.99
4,PTPGKRRSSALWSEMLDITMKESL [A4G],2.3
5,PTPEKRRSSALWSEMLDITMKESL [A4E],2.48
6,PTPNKRRSSALWSEMLDITMKESL [A4N],2.07
7,PTPDKRRSSALWSEMLDITMKESL [A4D],2.46
8,PTPFKRRSSALWSEMLDITMKESL [A4F],2.03
9,PTPLKRRSSALWSEMLDITMKESL [A4L],1.85
10,PTPSKRRSSALWSEMLDITMKESL [A4S],1.73
11,PTPYKRRSSALWSEMLDITMKESL [A4Y],1.82
12,PTPHKRRSSALWSEMLDITMKESL [A4H],1.84
13,PTPTKRRSSALWSEMLDITMKESL [A4T],1.95
14,PTPRKRRSSALWSEMLDITMKESL [A4R],2.03
15,PTPCKRRSSALWSEMLDITMKESL [A4C],1.47
16,PTPWKRRSSALWSEMLDITMKESL [A4W],2.27
17,PTPMKRRSSALWSEMLDITMKESL [A4M],2.07
18,PTPVKRRSSALWSEMLDITMKESL [A4V],2.21
19,PTPPKRRSSALWSEMLDITMKESL [A4P],2.11
20,PTPAKRYSSALWSEMLDITMKESL [R7Y],2.39
21,PTPAKRGSSALWSEMLDITMKESL [R7G],2.38
22,PTPAKRNSSALWSEMLDITMKESL [R7N],2.85
23,PTPAKRSSSALWSEMLDITMKESL [R7S],2.71
24,PTPAKRHSSALWSEMLDITMKESL [R7H],2.34

row,Variant,protein stability index
1,PTPAKRPSSALWSEMLDITMKESL [R7P],1.96
2,PTPAKRTSSALWSEMLDITMKESL [R7T],2.16
3,PTPAKRESSALWSEMLDITMKESL [R7E],2.8
4,PTPAKRDSSALWSEMLDITMKESL [R7D],3.36
5,PTPAKRWSSALWSEMLDITMKESL [R7W],2.36
6,PTPAKRVSSALWSEMLDITMKESL [R7V],2.46
7,PTPAKRMSSALWSEMLDITMKESL [R7M],2.15
8,PTPAKRQSSALWSEMLDITMKESL [R7Q],2.54
9,PTPAKRFSSALWSEMLDITMKESL [R7F],2.03
10,PTPAKRASSALWSEMLDITMKESL [R7A],2.61
11,PTPAKRKSSALWSEMLDITMKESL [R7K],2.29
12,PMPAKRRSSALWSEMLDITMKESL [T2M],2.11
13,PDPAKRRSSALWSEMLDITMKESL [T2D],2.73
14,PVPAKRRSSALWSEMLDITMKESL [T2V],2.54
15,PRPAKRRSSALWSEMLDITMKESL [T2R],2.34
16,PHPAKRRSSALWSEMLDITMKESL [T2H],2.85
17,PNPAKRRSSALWSEMLDITMKESL [T2N],2.38
18,PSPAKRRSSALWSEMLDITMKESL [T2S],1.62
19,PIPAKRRSSALWSEMLDITMKESL [T2I],2.26
20,PWPAKRRSSALWSEMLDITMKESL [T2W],1.5
21,PKPAKRRSSALWSEMLDITMKESL [T2K],2.15
22,PLPAKRRSSALWSEMLDITMKESL [T2L],2.84
23,PQPAKRRSSALWSEMLDITMKESL [T2Q],2.33
24,PGPAKRRSSALWSEMLDITMKESL [T2G],2.06

row,Variant,protein stability index
1,PCPAKRRSSALWSEMLDITMKESL [T2C],1.55
2,PFPAKRRSSALWSEMLDITMKESL [T2F],1.97
3,PYPAKRRSSALWSEMLDITMKESL [T2Y],1.86
4,PAPAKRRSSALWSEMLDITMKESL [T2A],2.93
5,PEPAKRRSSALWSEMLDITMKESL [T2E],3.04
6,PTHAKRRSSALWSEMLDITMKESL [P3H],2.05
7,PTEAKRRSSALWSEMLDITMKESL [P3E],2.25
8,PTKAKRRSSALWSEMLDITMKESL [P3K],2.44
9,PTGAKRRSSALWSEMLDITMKESL [P3G],2.27
10,PTCAKRRSSALWSEMLDITMKESL [P3C],1.81
11,PTQAKRRSSALWSEMLDITMKESL [P3Q],2.39
12,PTAAKRRSSALWSEMLDITMKESL [P3A],1.88
13,PTLAKRRSSALWSEMLDITMKESL [P3L],2.1
14,PTYAKRRSSALWSEMLDITMKESL [P3Y],1.61
15,PTSAKRRSSALWSEMLDITMKESL [P3S],2.17
16,PTMAKRRSSALWSEMLDITMKESL [P3M],2.24
17,PTWAKRRSSALWSEMLDITMKESL [P3W],3.24
18,PTRAKRRSSALWSEMLDITMKESL [P3R],2.5
19,PTTAKRRSSALWSEMLDITMKESL [P3T],2.21
20,PTNAKRRSSALWSEMLDITMKESL [P3N],2.27
21,PTDAKRRSSALWSEMLDITMKESL [P3D],2.32
22,PTIAKRRSSALWSEMLDITMKESL [P3I],2.49
